Assay results taken from FireProtDB (doi:10.1021/bi00437a058).

B1: Ribonuclease, P00648 (parent)
chain: MMKMEGIALKKRLSWISVCLLVLVSAAGMLFSTAAKTETSSHKAHTEAQVINTFDGVADYLQTYHKLPDNYITKSEAQALGWVASKGNLADVAPGKSIGGDIFSNREGKLPGKSGRTWREADINYTSGFRNSDRILYSSDWLIYKTTDHYQTFTKIR

Variants of: B1
Conditions: Bacillus amyloliquefaciens, pH 6.3, Fluorescence, structure 1BNI, whole UniProt chain shown
[1] = 25 °C, Urea, MES 450 mM, reversible: yes (100%)
[2] = 48 °C, Thermal, MES 50 mM, reversible: yes (>85%)
[3] = Thermal, MES 50 mM, reversible: yes (>85%)
[4] = 25 °C, GdnHCl, MES 450 mM, reversible: yes (100%)

| Variant | ddG of mutation (higher = less stable) [1] [kcal/mol] | denaturant m value [1] [kcal/mol/M] | denaturant midpoint (higher = more stable) [1] [M] | unfolding free energy [1] [kcal/mol] | ddG of mutation (higher = less stable) [2] [kcal/mol] | Tm [3] [°C] | change of melting temperature, mutant - wild type (higher = more stable) [3] [°C] | unfolding enthalpy (van 't Hoff) [3] [kcal/mol] | ddG of mutation (higher = less stable) [4] [kcal/mol] | denaturant m value [4] [kcal/mol/M] | denaturant midpoint (higher = more stable) [4] [M] | unfolding free energy [4] [kcal/mol] |
| --- | --- | --- | --- | --- | --- | --- | --- | --- | --- | --- | --- | --- |
| L61A | 4.65 | 2.08 | 2.29 | 4.77 | 4.2 | 42 | -11.9 | 108 | – | – | – | – |
| I143V | 0.74 | 2.11 | 4.11 | 8.68 | – | 51.5 | -2.4 | 121 | 0.69 | 4.64 | 1.76 | 8.19 |
| I143A | 3.13 | 2.18 | 2.89 | 6.29 | 3.2 | 44.9 | -9.6 | 112 | 2.72 | 4.87 | 1.26 | 6.16 |
| I135V | 1.47 | 2.06 | 3.87 | 7.95 | – | 51 | -2.9 | 117 | – | – | – | – |
| I135A | 4.08 | 2.16 | 2.47 | 5.34 | 3.9 | 42.7 | -11.2 | 106 | – | – | – | – |
